# In patent US20180177842A1 (CANIMGUIDE THERAPEUTICS, published 2018):
# Ends that are not written are not given here.
# T1: His-tagged P3028 (human, also: His tag, length and end not given here)
# T1 construct: in solution at 0.5 ug/mL, detected with mouse anti-His antibody and rabbit anti-mouse peroxidase (rampo); also called PGE73; His-tag-P3028; not shown: His tag
# T1 peptide: VFDEFKPLVEEPQNLIK
# Target: T1, His-tagged P3028
# Experiment: PEPSCAN ELISA, peptide on chip;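 also: binding detected by peroxidase ELISA with ABTS, OD405 colour imaged by CCD camera before and after staining, raw OD405 reported as rampo units, air-bubble wells scored 0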
row,Binder,RAMPO Score [rampo units]
1,KKLETFFVKLSLFTER [SEQ ID NO 299],417
2,KKLITFFVKLSLFTER [SEQ ID NO 300],430
3,KKLVTFFVKLSLFTER [SEQ ID NO 301],424
4,KKLWTFFVKLSLFTER [SEQ ID NO 302],443
5,KKLYTFFVKLSLFTER [SEQ ID NO 303],422
6,KKLDCFFVKLSLFTER [SEQ ID NO 304],449
7,KKLDMFFVKLSLFTER [SEQ ID NO 305],475
8,KKLDNFFVKLSLFTER [SEQ ID NO 306],436
9,KKLDPFFVKLSLFTER [SEQ ID NO 307],427
10,KKLDQFFVKLSLFTER [SEQ ID NO 308],535
11,KKLDRFFVKLSLFTER [SEQ ID NO 309],430
12,KKLDSFFVKLSLFTER [SEQ ID NO 310],458
13,KKLDWFFVKLSLFTER [SEQ ID NO 311],418
14,KKLDYFFVKLSLFTER [SEQ ID NO 312],425
15,KKLDTAFVKLSLFTER [SEQ ID NO 313],575
16,KKLDTIFVKLSLFTER [SEQ ID NO 314],466
17,KKLDTMFVKLSLFTER [SEQ ID NO 315],467
18,KKLDTNFVKLSLFTER [SEQ ID NO 316],446
19,KKLDTPFVKLSLFTER [SEQ ID NO 317],497
20,KKLDTTFVKLSLFTER [SEQ ID NO 318],481
21,KKLDTVFVKLSLFTER [SEQ ID NO 319],547
22,KKLDTFLVKLSLFTER [SEQ ID NO 320],517
23,KKLDTFMVKLSLFTER [SEQ ID NO 321],712
24,KKLDTFQVKLSLFTER [SEQ ID NO 322],511

row,Binder,RAMPO Score [rampo units]
1,KKLDTFSVKLSLFTER [SEQ ID NO 323],700
2,KKLDTFTVKLSLFTER [SEQ ID NO 324],517
3,KKLDTFVVKLSLFTER [SEQ ID NO 325],527
4,KKLDTFFFKLSLFTER [SEQ ID NO 326],358
5,KKLDTFFGKLSLFTER [SEQ ID NO 327],379
6,KKLDTFFLKLSLFTER [SEQ ID NO 328],411
7,KKLDTFFPKLSLFTER [SEQ ID NO 329],456
8,KKLDTFFRKLSLFTER [SEQ ID NO 330],365
9,KKLDTFFVRLSLFTER [SEQ ID NO 331],374
10,KKLDTFFVKASLFTER [SEQ ID NO 332],426
11,KKLDTFFVKFSLFTER [SEQ ID NO 333],403
12,KKLDTFFVKGSLFTER [SEQ ID NO 334],495
13,KKLDTFFVKISLFTER [SEQ ID NO 335],415
14,KKLDTFFVKMSLFTER [SEQ ID NO 336],460
15,KKLDTFFVKNSLFTER [SEQ ID NO 337],365
16,KKLDTFFVKPSLFTER [SEQ ID NO 338],436
17,KKLDTFFVKQSLFTER [SEQ ID NO 339],470
18,KKLDTFFVKRSLFTER [SEQ ID NO 340],439
19,KKLDTFFVKSSLFTER [SEQ ID NO 341],351
20,KKLDTFFVKTSLFTER [SEQ ID NO 342],399
21,KKLDTFFVKVSLFTER [SEQ ID NO 343],658
22,KKLDTFFVKYSLFTER [SEQ ID NO 344],382
23,KKLDTFFVKLHLFTER [SEQ ID NO 345],535
24,KKLDTFFVKLMLFTER [SEQ ID NO 346],744

row,Binder,RAMPO Score [rampo units]
1,KKLDTFFVKLNLFTER [SEQ ID NO 347],451
2,KKLDTFFVKLQLFTER [SEQ ID NO 348],768
3,KKLDTFFVKLTLFTER [SEQ ID NO 349],520
4,KKLDTFFVKLSAFTER [SEQ ID NO 350],462
5,KKLDTFFVKLSHFTER [SEQ ID NO 351],460
6,KKLDTFFVKLSIFTER [SEQ ID NO 352],456
7,KKLDTFFVKLSMFTER [SEQ ID NO 353],499
8,KKLDTFFVKLSNFTER [SEQ ID NO 354],462
9,KKLDTFFVKLSQFTER [SEQ ID NO 355],651
10,KKLDTFFVKLSRFTER [SEQ ID NO 356],483
11,KKLDTFFVKLSSFTER [SEQ ID NO 357],478
12,KKLDTFFVKLSTFTER [SEQ ID NO 358],437
13,KKLDTFFVKLSVFTER [SEQ ID NO 359],545
14,KKLDTFFVKLSWFTER [SEQ ID NO 360],409
15,KKLDTFFVKLSLATER [SEQ ID NO 361],525
16,KKLDTFFVKLSLCTER [SEQ ID NO 362],400
17,KKLDTFFVKLSLGTER [SEQ ID NO 363],531
18,KKLDTFFVKLSLHTER [SEQ ID NO 364],1050
19,KKLDTFFVKLSLITER [SEQ ID NO 365],468
20,KKLDTFFVKLSLLTER [SEQ ID NO 366],448
21,KKLDTFFVKLSLMTER [SEQ ID NO 367],1190
22,KKLDTFFVKLSLNTER [SEQ ID NO 368],862
23,KKLDTFFVKLSLPTER [SEQ ID NO 369],696
